Non-standard residues stand in square brackets, D forms with d. Nle = CCCC[C@H](N)C(=O)O
Molecular target: Melanocortin-1 Receptor (human, UniProt Q01726 1-317)
Assay: cell-based or functional assay

Melanocortin-1 Receptor, sequence (Q01726 whole entry): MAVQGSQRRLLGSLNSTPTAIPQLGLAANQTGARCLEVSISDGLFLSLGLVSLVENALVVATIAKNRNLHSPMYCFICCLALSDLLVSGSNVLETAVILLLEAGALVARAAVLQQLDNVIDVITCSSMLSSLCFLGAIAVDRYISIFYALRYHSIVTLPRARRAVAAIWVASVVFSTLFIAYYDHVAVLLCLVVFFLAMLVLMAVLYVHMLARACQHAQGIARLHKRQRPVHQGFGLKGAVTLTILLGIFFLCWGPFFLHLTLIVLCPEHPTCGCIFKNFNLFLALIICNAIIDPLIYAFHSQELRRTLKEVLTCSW

tyrosinase activity, concentration giving maximal stimulation, melanocyte strain 102b, 6 days: 0.1 nM
B1: CUV9900, Ac-Nle-Glu-His-D-Phe-Arg-Trp-NH2 (SEQ ID NO: 1) variation (peptide)
peptide: Ac-[Nle]EH[dF]RW-NH2
SMILES: CCCC[C@H](NC(C)=O)C(=O)N[C@@H](CCC(=O)O)C(=O)N[C@@H](Cc1c[nH]cn1)C(=O)N[C@H](Cc1ccccc1)C(=O)N[C@@H](CCCNC(=N)N)C(=O)N[C@@H](Cc1c[nH]c2ccccc12)C(N)=O
